Measurements as given in patent US20210403565A1 (BIOATLA, published 2021).

T1: recombinant human CTLA4 extracellular domain (human, UniProt P16410 36-161)
T1 construct: extracellular domain; also called huCTLA-4
T1 sequence (looked up): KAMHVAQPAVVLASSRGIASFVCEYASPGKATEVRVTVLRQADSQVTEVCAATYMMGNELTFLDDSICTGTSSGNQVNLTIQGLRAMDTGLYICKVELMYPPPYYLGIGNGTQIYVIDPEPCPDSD

T2: recombinant cynomolgus CTLA4 extracellular domain (cynomolgus, UniProt G7PL88 36-161)
T2 construct: extracellular domain; also called cynoCTLA-4; cynoCTLA4
T2 sequence: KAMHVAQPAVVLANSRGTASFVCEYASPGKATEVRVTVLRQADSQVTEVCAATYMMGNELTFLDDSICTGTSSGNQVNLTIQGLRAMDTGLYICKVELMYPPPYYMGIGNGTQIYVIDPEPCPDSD

T3: human CTLA4 expressed on the cell surface of CHO cells (human, UniProt P16410 36-223)
T3 construct: whole, on cells; also called CHO-huCTLA4; huCTLA4
T3 sequence (looked up): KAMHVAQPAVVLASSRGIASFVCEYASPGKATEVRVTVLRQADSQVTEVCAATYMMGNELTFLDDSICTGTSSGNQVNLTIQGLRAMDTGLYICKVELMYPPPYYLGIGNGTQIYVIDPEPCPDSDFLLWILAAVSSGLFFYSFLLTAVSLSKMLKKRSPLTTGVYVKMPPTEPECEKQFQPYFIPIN

T4: cynomolgus CTLA4 expressed on the cell surface of CHO cells (cynomolgus, UniProt G7PL88 36-223)
T4 construct: whole, on cells; also called CHO-cynoCTLA4
T4 sequence: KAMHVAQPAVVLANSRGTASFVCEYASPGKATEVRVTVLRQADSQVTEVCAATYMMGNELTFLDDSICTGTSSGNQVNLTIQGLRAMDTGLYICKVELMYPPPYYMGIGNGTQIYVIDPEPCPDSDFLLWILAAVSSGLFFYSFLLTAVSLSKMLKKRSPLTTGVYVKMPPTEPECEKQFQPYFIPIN


What was measured:
[1] = molecular target: T1, recombinant human CTLA4 extracellular …; experiment: SPR, human CTLA4 ECD immobilised, pH 7.4, AVG
Procedure: (§1) The CTLA4 extracellular domain (human or cynomolgus) was immobilized on the surface of a sensor chip. […] The binding kinetics were calculated using a 1:1 Longmuir model built into the analysis software.

[2] = molecular target: T2, recombinant cynomolgus CTLA4 …; experiment: SPR, cynomolgus CTLA4 ECD immobilised, pH 6.0, equilibrium fit; SPR, pH 6.0
Procedure: as §1
The KD was calculated by plotting the maximum SPR signal at each concentration against the antibody concentration. Experiments were run in triplicate at each pH.

[3] = molecular target: T3, human CTLA4 expressed on the cell …; experiment: FACS, CHO cells expressing human CTLA4 (CHO-huCTLA-4), pH 6.0, MFI; no unit in the table, unit from the axis Log Antibodies [ng/ml]
Procedure: (§2) The amount of antibodies bound on the cells was quantified using anti-human IgG antibody conjugated to fluorophores. EC₅₀ values at pH 6.0 and 7.4 for binding to cells were calculated using the nonlinear fit (variable slope, four parameters) model built into GraphPad Prism software (version 7.03). The expression levels of human CTLA4 or cynomolgus CTLA4 on the surface of the CHO cells were determined using a BD QuantiBRITE™ PE kit.
(§3) At least two independent duplicate FACS experiments were performed for each antibody using each of the cell lines. The binding activities at different concentrations of the antibodies are plotted in these figures.

[4] = molecular target: T1, recombinant human CTLA4 extracellular …; experiment: SPR, human CTLA4 ECD immobilised, pH 6.0, AVG
Procedure: as §1

[5] = molecular target: T3, human CTLA4 expressed on the cell …; experiment: FACS on CHO-huCTLA4 cells, pH 6.0, mean
Procedure: as §2

[6] = molecular target: T2, recombinant cynomolgus CTLA4 …; experiment: ELISA, immobilised cynoCTLA-4, pH 6.0, Jun. 27, 2017; ELISA, pH 6.0, Jun. 27, 2017
[7] = molecular target: T1, recombinant human CTLA4 extracellular …; experiment: ELISA, immobilised huCTLA-4, pH 6.0, Jul. 11, 2017
Procedure: (§4) EC₅₀ values at pH 6.0 for binding to human CTLA4 were calculated using the nonlinear fit model (variable slope, four parameters) of GraphPad Prism version 7.03.

[8] = molecular target: T2, recombinant cynomolgus CTLA4 …; experiment: ELISA, immobilised cynoCTLA-4, pH 6.0, mean +/- SD; ELISA, pH 6.0, mean of the two runs
[9] = molecular target: T2, recombinant cynomolgus CTLA4 …; experiment: ELISA, immobilised cynoCTLA-4, pH 6.0, Jun. 19, 2017; ELISA, pH 6.0, Jun. 19, 2017
[10] = molecular target: T1, recombinant human CTLA4 extracellular …; experiment: SPR, human CTLA4 ECD immobilised, pH 7.4, run 3
Procedure: as §1

[11] = molecular target: T1, recombinant human CTLA4 extracellular …; experiment: SPR, human CTLA4 ECD immobilised
Procedure: as §1

[12] = molecular target: T1, recombinant human CTLA4 extracellular …; experiment: SPR, human CTLA4 ECD immobilised, pH 6.0, run 3
Procedure: as §1

[13] = molecular target: T4, cynomolgus CTLA4 expressed on the cell …; experiment: FACS, CHO cells expressing cynomolgus CTLA4 (CHO-cynoCTLA-4), pH 6.0, MFI; no unit in the table, unit from the axis Log Antibodies [ng/ml]
Procedure: as §2, §3

[14] = molecular target: T1, recombinant human CTLA4 extracellular …; experiment: ELISA, immobilised huCTLA-4, pH 6.0, Jun. 27, 2017
Procedure: as §4

[15] = molecular target: T1, recombinant human CTLA4 extracellular …; experiment: SPR, human CTLA4 ECD immobilised, pH 7.4, run 1
Procedure: as §1

[16] = molecular target: T1, recombinant human CTLA4 extracellular …; experiment: ELISA, immobilised huCTLA-4, pH 6.0, Jun. 29, 2017
Procedure: as §4

Row | Kd [1] | koff [1] | kon [1] | Kd [2] | EC50 [3] | Kd [4] | koff [4] | kon [4] | EC50 [5] | EC50 [6] | EC50 [7] | EC50 [8] | EC50 [9] | Kd [10] | koff [10] | kon [10] | factor by which the binding activity drops from pH 6.0 to pH 7.4 [11] | Kd [12] | koff [12] | kon [12] | Binder | further results
1 | 45.2 nM | 0.0166 s⁻¹ | 519000 M⁻¹ s⁻¹ | 5.95 nM | 0.168 µg/mL | 0.451 nM | 0.00163 s⁻¹ | 3.56e+06 M⁻¹ s⁻¹ | 0.243 µg/mL | 0.292 µg/mL | 6.17 ng/mL | 0.276 µg/mL | 0.259 µg/mL | 68.3 nM | 0.0132 s⁻¹ | 194000 M⁻¹ s⁻¹ | ~100 fold | 0.524 nM | 0.00214 s⁻¹ | 4.08e+06 M⁻¹ s⁻¹ | BA-087-08-32 (antibody, V domains shown, Detected with anti-human IgG and a molecular weight of 146 kDa was used in SPR, so it was tested as a whole IgG; also called BA-087-08-032; BA-087-08-32 (# 6978)) VH: EVQLVQSGAEVKKPGATVKISCKVSGFTFSHYTMHWIRQSPSRGLEWLGFISYDGNYKYYADSVKGRFTISRDNAKNSLYLQMNSLRAEDTAVYYCARTGWLGPFDYWGQGTLVTVSS VL: EIVMTQSPATLSVSPGERATLSCRASQSVGSSYLAWYQQKPGKAPKLLIYGAFSRATGVPSRFSGSGSGTDFTLTISSLQPEDFATYYCQQDGSSPWTFGQGTKVEIK | EC50 [13]: 0.354 µg/mL; EC50 [14]: 0.0146 µg/mL; Kd [15]: 52.5 nM; koff [15]: 0.0284 s⁻¹; EC50 [16]: 8.57 ng/mL
2 | 1.1 nM | 0.000958 s⁻¹ | 869000 M⁻¹ s⁻¹ | 1.96 nM | 0.247 µg/mL | 0.499 nM | 0.000611 s⁻¹ | 1.23e+06 M⁻¹ s⁻¹ | 0.35 µg/mL | 0.0397 µg/mL | 8.35 ng/mL | 0.0276 µg/mL | 0.0159 µg/mL | 1.12 nM | 0.000943 s⁻¹ | 844000 M⁻¹ s⁻¹ | ~2 fold | 0.543 nM | 0.000598 s⁻¹ | 1.1e+06 M⁻¹ s⁻¹ | BA-087-05-19 (antibody, V domains shown, Detected with anti-human IgG and a molecular weight of 146 kDa was used in SPR, so it was tested as a whole IgG; also called BA-087-05-019; BA-087-05-19 (# 6972)) VH: EVQLVESGGGLVQPGGSLRLSCAASGFTFSHYTMHWVRQAPGKGLEWVSFISYDGNNKYYADSVKGRFTISRDNSKNTLYLQMNSLRAEDTAVYYCARTGWLGPFDYWGQGTLVTVSS VL: AIQLTQSPSSLSASVGDRVTITCRASQYVGSSYLAWYLQKPGQSPQLLIYGAFSRATGIPARFSGSGSGTEFTLTISSLQSEDFAVYYCQQDGSSPWTFGQGTKVEIK | EC50 [13]: 0.242 µg/mL; EC50 [14]: 0.00959 µg/mL; Kd [15]: 1.39 nM; koff [15]: 0.00126 s⁻¹; kon [15]: 906000 M⁻¹ s⁻¹; EC50 [16]: 6.59 ng/mL
